B1: Protein phosphatase 1 regulatory inhibitor subunit 16B (Homo sapiens), Q96T49 (parent)
chain: MASHVDLLTELQLLEKVPTLERLRAAQKRRAQQLKKWAQYEQDLQHRKRKHERKRSTGGRRKKVSFEASVALLEASLRNDAEEVRYFLKNKVSPDLCNEDGLTALHQCCIDNFEEIVKLLLSHGANVNAKDNELWTPLHAAATCGHINLVKILVQYGADLLAVNSDGNMPYDLCEDEPTLDVIETCMAYQGITQEKINEMRVAPEQQMIADIHCMIAAGQDLDWIDAQGATLLHIAGANGYLRAAELLLDHGVRVDVKDWDGWEPLHAAAFWGQMQMAELLVSHGASLSARTSMDEMPIDLCEEEEFKVLLLELKHKHDVIMKSQLRHKSSLSRRTSSAGSRGKVVRRASLSDRTNLYRKEYEGEAILWQRSAAEDQRTSTYNGDIRETRTDQENKDPNPRLEKPVLLSEFPTKIPRGELDMPVENGLRAPVSAYQYALANGDVWKVHEVPDYSMAYGNPGVADATPPWSSYKEQSPQTLLELKRQRAAAKLLSHPFLSTHLGSSMARTGESSSEGKAPLIGGRTSPYSSNGTSVYYTVTSGDPPLLKFKAPIEEMEEKVHGCCRIS
B2: Zinc finger protein 488 (Homo sapiens), Q96MN9 (parent)
chain: MPEWPPCLSVAPALVITMAAGKGAPLSPSAENRWRLSEPELGRGCKPVLLEKTNRLGPEAAVGRAGRDVGSAELALLVAPGKPRPGKPLPPKTRGEQRQSAFTELPRMKDRQVDAQAQEREHDDPTGQPGAPQLTQNIPRGPAGSKVFSVWPSGARSEQRSAFSKPTKRPAERPELTSVFPAGESADALGELSGLLNTTDLACWGRLSTPKLLVGDLWNLQALPQNAPLCSTFLGAPTLWLEHTQAQVPPPSSSSTTSWALLPPTLTSLGLSTQNWCAKCNLSFRLTSDLVFHMRSHHKKEHAGPDPHSQKRREEALACPVCQEHFRERHHLSRHMTSHS
B3: Beta-taxilin (Homo sapiens), Q8N3L3 (parent)
chain: MEANHSEQLSAERQSTPPGDSSSLPSHNGLEKEDGQDSPTPVQPPEKEASVHPDISEELNRQLEDIINTYGSAASTAGKEGSARASEQPENAESPDNEDGDCEETTEEAGREPVASGEPPTVKEPVSNKEQKLEKKILKGLGKEANLLMQNLNKLQTPEEKFDFLFKKYAELLDEHRTEQKKLKLLQKKQVQIQKEKDQLQGEHSRAILARSKLESLCRELQRHNKTLKEEALQRAREEEEKRKEITSHFQSTLTDIQGQIEQQSERNMKLCQENTELAEKLKSIIDQYELREEHLDKIFKHRELQQKLVDAKLEQAQEMMKEAEERHKREKEYLLNQAAEWKLQAKVLKEQETVLQAQLTLYSGRFEEFQSTLTKSNEVFATFKQEMDKTTKKMKKLEKDTATWKARFENCNKALLDMIEEKALRAKEYECFVMKIGRLENLCRALQEERNELHKKIRDAEISEKDDQSQHNSDEEPESNVSVDQEIDAEEVNSVQTAVKNLATAFMIIHHPESTPHQSKETQPEIGSSQESADAALKEPEQPPLIPSRDSESPLPPLTPQAEAEGGSDAEPPSKASNSPAGLGAETQCEGLPVGAQADQASWKPEAEASGQAPQAPTEASLQKMEADVPAPACAAEEHVAAMVPACEPSRQPPRAAAEELPVGASAGPQPRNVADTNLEGVD
partner: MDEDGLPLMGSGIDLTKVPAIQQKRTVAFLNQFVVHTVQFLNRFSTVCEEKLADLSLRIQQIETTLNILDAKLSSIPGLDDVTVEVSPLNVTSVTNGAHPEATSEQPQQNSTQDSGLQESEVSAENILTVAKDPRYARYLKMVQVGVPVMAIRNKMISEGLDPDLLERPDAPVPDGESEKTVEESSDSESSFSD
B4: Ribosomal RNA-processing protein 7 homolog A (Homo sapiens), Q9Y3A4 (parent)
chain: MVARRRKCAARDPEDRIPSPLGYAAIPIKFSEKQQASHYLYVRAHGVRQGTKSTWPQKRTLFVLNVPPYCTEESLSRLLSTCGLVQSVELQEKPDLAESPKESRSKFFHPKPVPGFQVAYVVFQKPSGVSAALALKGPLLVSTESHPVKSGIHKWISDYADSVPDPEALRVEVDTFMEAYDQKIAEEEAKAKEEEGVPDEEGWVKVTRRGRRPVLPRTEAASLRVLERERRKRSRKELLNFYAWQHRESKMEHLAQLRKKFEEDKQRIELLRAQRKFRPY
B5: Keratin, type II cytoskeletal 6A (Homo sapiens), P02538 (parent)
chain: MASTSTTIRSHSSSRRGFSANSARLPGVSRSGFSSVSVSRSRGSGGLGGACGGAGFGSRSLYGLGGSKRISIGGGSCAISGGYGSRAGGSYGFGGAGSGFGFGGGAGIGFGLGGGAGLAGGFGGPGFPVCPPGGIQEVTVNQSLLTPLNLQIDPTIQRVRAEEREQIKTLNNKFASFIDKVRFLEQQNKVLETKWTLLQEQGTKTVRQNLEPLFEQYINNLRRQLDSIVGERGRLDSELRGMQDLVEDFKNKYEDEINKRTAAENEFVTLKKDVDAAYMNKVELQAKADTLTDEINFLRALYDAELSQMQTHISDTSVVLSMDNNRNLDLDSIIAEVKAQYEEIAQRSRAEAESWYQTKYEELQVTAGRHGDDLRNTKQEIAEINRMIQRLRSEIDHVKKQCANLQAAIADAEQRGEMALKDAKNKLEGLEDALQKAKQDLARLLKEYQELMNVKLALDVEIATYRKLLEGEECRLNGEGVGQVNISVVQSTVSSGYGGASGVGSGLGLGGGSSYSYGSGLGVGGGFSSSSGRAIGGGLSSVGGGSSTIKYTTTSSSSRKSYKH

Variants of: B1
Conditions: with crx_human CRX

How did the “effect of a mutation on the interaction” value turn out when P519S was run?
The value was “with no effect”.

Variants of: B1
Conditions: with ikzf3_human IKZF3, Q9UKT9
Sequence of ikzf3_human IKZF3, Q9UKT9 (Q9UKT9 whole entry): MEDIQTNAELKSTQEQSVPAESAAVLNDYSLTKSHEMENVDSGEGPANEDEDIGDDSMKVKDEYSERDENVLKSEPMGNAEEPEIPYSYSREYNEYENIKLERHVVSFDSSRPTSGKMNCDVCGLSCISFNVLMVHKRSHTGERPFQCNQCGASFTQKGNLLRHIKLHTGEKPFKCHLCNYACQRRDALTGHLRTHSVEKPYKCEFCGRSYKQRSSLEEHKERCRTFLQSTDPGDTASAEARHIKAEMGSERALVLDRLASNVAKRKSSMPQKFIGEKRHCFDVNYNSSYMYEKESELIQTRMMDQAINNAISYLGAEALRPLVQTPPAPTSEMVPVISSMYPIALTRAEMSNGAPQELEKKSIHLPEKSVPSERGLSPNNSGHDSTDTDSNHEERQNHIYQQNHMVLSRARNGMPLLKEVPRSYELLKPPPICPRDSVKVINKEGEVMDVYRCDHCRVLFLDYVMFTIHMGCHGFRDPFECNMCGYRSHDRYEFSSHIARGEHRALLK

For P519S, which “effect of a mutation on the interaction” value is on record?
The value was “with no effect”.

Variants of: B1
Conditions: with sf3b4_human SF3B4, Q15427
Sequence of sf3b4_human SF3B4, Q15427 (Q15427 whole entry): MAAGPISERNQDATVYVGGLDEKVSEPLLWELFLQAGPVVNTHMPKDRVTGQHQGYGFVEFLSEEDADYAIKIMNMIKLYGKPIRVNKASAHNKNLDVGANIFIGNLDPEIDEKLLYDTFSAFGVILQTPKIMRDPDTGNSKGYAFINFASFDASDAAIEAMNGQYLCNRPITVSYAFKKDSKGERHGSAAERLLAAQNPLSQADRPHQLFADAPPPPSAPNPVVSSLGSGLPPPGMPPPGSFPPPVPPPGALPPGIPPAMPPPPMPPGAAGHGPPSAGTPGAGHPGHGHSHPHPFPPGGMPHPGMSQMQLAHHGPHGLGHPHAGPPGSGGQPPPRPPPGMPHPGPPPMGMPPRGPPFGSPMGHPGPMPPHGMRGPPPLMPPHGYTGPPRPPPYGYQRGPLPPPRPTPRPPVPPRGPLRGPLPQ

With P519S as the variant, how does the “effect of a mutation on the interaction” value read?
Its value is “with no effect”.

Variants of: B2
Conditions: with rbpms_human RBPMS

Which “effect of a mutation on the interaction” value does the source give for A72V here?
Its value is “with no effect”.

With C230R as the variant, how does the “effect of a mutation on the interaction” value read?
Its value is “with no effect”.

Variants of: B3
Conditions: with wasc3_human WASHC3, Q9Y3C0

With I527T as the variant, how does the “effect of a mutation on the interaction” value read?
The value was “with no effect”.

Variants of: B4
Conditions: with tfp11_human TFIP11, Q9UBB9
Target sequence in this assay (Q9UBB9 whole entry): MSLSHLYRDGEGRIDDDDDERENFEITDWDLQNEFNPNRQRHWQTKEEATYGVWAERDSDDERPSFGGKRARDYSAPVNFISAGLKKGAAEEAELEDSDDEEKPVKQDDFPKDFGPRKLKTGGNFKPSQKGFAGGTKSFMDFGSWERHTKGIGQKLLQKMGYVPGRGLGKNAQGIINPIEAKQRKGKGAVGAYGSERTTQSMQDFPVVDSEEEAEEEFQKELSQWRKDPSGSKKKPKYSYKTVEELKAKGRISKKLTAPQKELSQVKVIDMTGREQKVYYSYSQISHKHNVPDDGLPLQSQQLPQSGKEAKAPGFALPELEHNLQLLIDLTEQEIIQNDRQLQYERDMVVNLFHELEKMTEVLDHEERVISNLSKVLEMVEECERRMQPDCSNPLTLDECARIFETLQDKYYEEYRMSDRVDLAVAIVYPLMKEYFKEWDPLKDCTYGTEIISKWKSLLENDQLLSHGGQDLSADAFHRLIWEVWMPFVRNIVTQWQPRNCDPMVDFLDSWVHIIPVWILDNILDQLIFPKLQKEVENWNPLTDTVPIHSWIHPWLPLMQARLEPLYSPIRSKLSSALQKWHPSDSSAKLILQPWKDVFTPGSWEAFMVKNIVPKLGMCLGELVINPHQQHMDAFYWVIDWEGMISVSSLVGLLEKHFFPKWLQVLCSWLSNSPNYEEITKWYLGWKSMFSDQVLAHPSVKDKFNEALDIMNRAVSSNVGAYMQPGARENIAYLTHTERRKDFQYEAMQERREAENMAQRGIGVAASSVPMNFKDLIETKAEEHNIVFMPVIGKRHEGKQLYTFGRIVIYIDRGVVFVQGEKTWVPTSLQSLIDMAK

With L75M as the variant, how does the “effect of a mutation on the interaction” value read?
Its value is “disrupting interaction strength”.

With V85I as the variant, how does the “effect of a mutation on the interaction” value read?
Its value is “with no effect”.

Variants of: B5
Conditions: with KRT17, Q04695
Sequence of KRT17, Q04695 (Q04695 whole entry): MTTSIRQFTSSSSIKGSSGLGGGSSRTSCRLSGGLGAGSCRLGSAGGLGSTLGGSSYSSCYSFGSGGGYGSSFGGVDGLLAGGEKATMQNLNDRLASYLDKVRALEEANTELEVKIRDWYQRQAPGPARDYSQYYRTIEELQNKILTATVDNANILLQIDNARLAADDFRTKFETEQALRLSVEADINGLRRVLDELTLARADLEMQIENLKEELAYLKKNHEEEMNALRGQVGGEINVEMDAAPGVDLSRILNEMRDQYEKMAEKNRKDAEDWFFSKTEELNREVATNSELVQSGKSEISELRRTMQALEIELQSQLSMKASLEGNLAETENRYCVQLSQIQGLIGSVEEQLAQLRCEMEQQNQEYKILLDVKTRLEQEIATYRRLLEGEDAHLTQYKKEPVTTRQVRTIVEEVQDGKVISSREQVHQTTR

Which “effect of a mutation on the interaction” value does the source give for L210M here?
Its value is “with no effect”.

Which “effect of a mutation on the interaction” value does the source give for A335T here?
The value was “with no effect”.

Which “effect of a mutation on the interaction” value does the source give for R415H here?
Its value is “with no effect”.

With V523F as the variant, how does the “effect of a mutation on the interaction” value read?
Its value is “with no effect”.

How did the “effect of a mutation on the interaction” value turn out when T552S was run?
The value was “with no effect”.

Variants of: B5
Conditions: with tfp11_human TFIP11, Q9UBB9
Target sequence in this assay (Q9UBB9 whole entry): as the sequence (Q9UBB9 whole entry) above

How did the “effect of a mutation on the interaction” value turn out when L210M was run?
Its value is “with no effect”.

For A335T, which “effect of a mutation on the interaction” value is on record?
Its value is “with no effect”.

R415H was tested. Which “effect of a mutation on the interaction” value did it give?
Its value is “with no effect”.

With V523F as the variant, how does the “effect of a mutation on the interaction” value read?
Its value is “with no effect”.

Which “effect of a mutation on the interaction” value does the source give for T552S here?
Its value is “with no effect”.

Variants of: B5
Conditions: with KRT15, P19012
Sequence of KRT15, P19012 (P19012 whole entry): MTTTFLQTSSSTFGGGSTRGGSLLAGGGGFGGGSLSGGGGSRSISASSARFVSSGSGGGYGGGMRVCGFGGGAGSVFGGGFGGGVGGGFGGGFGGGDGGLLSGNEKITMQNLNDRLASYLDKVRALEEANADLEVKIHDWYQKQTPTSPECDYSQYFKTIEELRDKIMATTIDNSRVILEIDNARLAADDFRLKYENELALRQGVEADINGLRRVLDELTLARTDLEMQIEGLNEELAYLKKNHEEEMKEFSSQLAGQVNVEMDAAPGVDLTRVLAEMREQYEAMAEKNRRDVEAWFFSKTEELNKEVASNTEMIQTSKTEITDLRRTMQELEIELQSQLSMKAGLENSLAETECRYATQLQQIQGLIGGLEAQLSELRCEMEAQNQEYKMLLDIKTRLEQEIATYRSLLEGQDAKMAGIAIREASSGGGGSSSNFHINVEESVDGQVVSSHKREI

Which “effect of a mutation on the interaction” value does the source give for L210M here?
The value was “with no effect”.

With A335T as the variant, how does the “effect of a mutation on the interaction” value read?
Its value is “with no effect”.

How did the “effect of a mutation on the interaction” value turn out when R415H was run?
Its value is “with no effect”.

For V523F, which “effect of a mutation on the interaction” value is on record?
The value was “with no effect”.

How did the “effect of a mutation on the interaction” value turn out when T552S was run?
The value was “with no effect”.
